One experiment has as its target T1, human BDCA2-Fc protein (human, UniProt Q8WTT0 45-213).
T1 sequence: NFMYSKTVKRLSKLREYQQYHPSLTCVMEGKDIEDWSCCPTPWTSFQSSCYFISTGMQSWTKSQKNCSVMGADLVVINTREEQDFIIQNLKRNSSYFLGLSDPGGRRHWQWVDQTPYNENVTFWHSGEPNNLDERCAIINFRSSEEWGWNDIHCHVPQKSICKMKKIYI
In words: ELISA, BDCA2-Fc coated at 1 ug/mL. In general terms: ELISA stands for enzyme-linked immunosorbent assay.

Experiment [1] deals with T2, human BDCA2 on cells (293FT-BDCA2 stable transfectant) (human, UniProt Q8WTT0 1-213).
T2 construct: whole, on cells; Also used here as the target for the PBMC assays, where native BDCA2 stands on pDCs; also called CLEC4C
T2 sequence (looked up): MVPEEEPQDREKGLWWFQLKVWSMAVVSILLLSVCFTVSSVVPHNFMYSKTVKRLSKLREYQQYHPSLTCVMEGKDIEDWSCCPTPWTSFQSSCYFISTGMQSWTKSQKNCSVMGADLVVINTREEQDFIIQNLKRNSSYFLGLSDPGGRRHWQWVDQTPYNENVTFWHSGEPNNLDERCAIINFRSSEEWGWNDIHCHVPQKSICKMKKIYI
The experiment can be described thus: flow cytometry (FACS) on 293FT-BDCA2 cells. (In general: A flow cytometer gives signals particle by particle.)

For orientation: EC50 means the concentration that produces a half-maximal response. The low end stands for higher potency in that assay, the high end for lower potency in that assay.

B1: 23C10A6B5 (antibody, V domains shown)
VH: QVQLQQPGADLVKPGASVMMSCKASGYTFTSYIIHWVKQTPGQGLEWIGTIYPGNGDTSYNQKFKGKATLTADKSSSTAYMQLSSLTSEDSAVYYCARMGDNEYFDYWGQGTTLTVSS
VL: DIQMTQSPASLSASVGETVTITCRASGNIHNYLAWYQQKQGKSPQLLVYDAETLADGVPSRFSGSGSGTQYSLNINSLQPEDFGSFYCQHFWSTPYTFGGGTKLEIK
notes: Murine monoclonal antibody from hybridoma; also called hybridoma clone 23C10A6B5
As for B1, the EC50 with human BDCA2-Fc protein is 0.0201 µg/mL; in experiment [1], 0.0835 µg/mL.
